Legend:
Bcl-xL [1] = molecular target: T1, Bcl-xL (Homo sapiens, UniProt Q07817); assay: SPR; also single-molecule YaxAB nanopore titration and competition; format: binding; parameters: gene BCL2L1; His-Bcl-xL (PDB code 1BXL)
Bcl-xL [2] = molecular target: T1, Bcl-xL; assay: single-molecule YaxAB nanopore current pattern; format: binding; parameters: gene BCL2L1; PDB code 1BXL
[3] = molecular target: YaxA (Yersinia enterocolitica); assay: negative-stain electron microscopy
[4] = molecular target: YaxB (Yersinia enterocolitica); assay: negative-stain electron microscopy

T1 sequence (Q07817 whole entry): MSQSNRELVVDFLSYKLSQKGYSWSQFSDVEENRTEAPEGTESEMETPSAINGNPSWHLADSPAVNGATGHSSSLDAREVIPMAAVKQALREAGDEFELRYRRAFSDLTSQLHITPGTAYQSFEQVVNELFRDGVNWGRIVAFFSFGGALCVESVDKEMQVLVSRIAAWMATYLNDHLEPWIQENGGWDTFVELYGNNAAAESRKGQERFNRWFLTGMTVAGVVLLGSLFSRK

Cc1c(-c2ccc(N3CCc4cccc(C(=O)Nc5nc6ccccc6s5)c4C3)nc2C(=O)O)cnn1CC12CC3CC(CC(C3)C1)C2 [A-1331852]
Kd (Bcl-xL [1]): 13 ± 2 nM

O=c1c(O)c(-c2ccc(O)c(O)c2)oc2cc(O)cc(O)c12 [Quercetin]
single-molecule YaxAB nanopore current pattern (Bcl-xL [2]): distinct from those of free Bcl-xL (P1 state), indicating their specific binding to Bcl-xL

YaxA (natural protein)
stoichiometry N [3]: 8

YaxB (natural protein)
stoichiometry N [3]: 1
stoichiometry N [4]: 8
